In the assay the target is T1, human B7-DC (human, UniProt Q9BQ51 20-273).
T1 construct: whole, on cells; also called hB7.DC; human B7-DC orthologue
T1 sequence (looked up): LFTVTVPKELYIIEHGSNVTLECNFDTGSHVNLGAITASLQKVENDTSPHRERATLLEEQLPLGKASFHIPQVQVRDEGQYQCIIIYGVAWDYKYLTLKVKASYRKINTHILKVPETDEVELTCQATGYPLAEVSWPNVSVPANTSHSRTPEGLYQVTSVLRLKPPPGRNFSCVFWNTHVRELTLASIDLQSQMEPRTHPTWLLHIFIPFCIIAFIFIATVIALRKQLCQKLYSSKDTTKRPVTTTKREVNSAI
The assay can be described thus: flow cytometry on Ltk cells transiently transfected with human B7-DC. (A flow cytometer gives signals particle by particle.)

B1: sHIgM12 (pentameric human monoclonal IgM/kappa antibody, B7-DC cross-linking antibody) (antibody)
heavy: QVQLQESGPGLLKPSETLSLTCTVSGGSVSLYYWSWIRQSPGKEPEWIGYIYSSGSTDYNPSLRSRVTISLDTSNNRFSLNLRSVTAADTAVYWCARSASIRGWFDPWGQGTLVTVSSGSASAPTLFPLVSCENSPSDTSSVAVGCLAQDFLPDSITFSWKYKNNSDISSTRGFPSVLRGGKYAATSQVLLPSKDVMQGTDEHVVCKVQHPNGNKEKNVPLPVIAELPPKVSVFVPPRDGFFGNPRKSKLICQATGFSPRQIQVSWLREGKQVGSGVTTDQVQAEAKESGPTTYKVTSTLTIKESDWLSQSMFTCRVDHRGLTFQQNASSMCVPDQDTAIRVFAIPPSFASIFLTKSTKLTCLVTDLTTYDSVTISWTRQNGEAVKTHTNISESHPNATFSAVGEASICEDDWNSGERFTCTVTHTDLPSPLKQTISRPKGVALHRPDVYLLPPAREQLNLRESATITCLVTGFSPADVFVQWMQRGQPLSPEKYVTSAPMPEPQAPGRYFAHSILTVSEEEWNTGETYTCVVAHEALPNRVTERTVDKSTGKPTLYNVSLVMSDTAGTCY
light: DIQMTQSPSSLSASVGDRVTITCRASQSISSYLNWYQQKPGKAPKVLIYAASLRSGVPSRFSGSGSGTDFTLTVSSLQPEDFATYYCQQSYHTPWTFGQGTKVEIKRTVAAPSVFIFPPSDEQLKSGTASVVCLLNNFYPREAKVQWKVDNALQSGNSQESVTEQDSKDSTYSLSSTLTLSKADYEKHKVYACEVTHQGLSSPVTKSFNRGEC
notes: also called intact sHIgM12; pentameric sHIgM12
Regarding B1, the binding result is listed as “binds”.

(Values after patent publication EP2481750A1 (Mayo Foundation for Medical Education and Research, dated 2012).)
